# Measured values reported in patent US20210340215A1 (published 2021).
# T1: KRAS G12V peptide on HLA-A*11:01 (human)
# T1 peptide: VVGAVGVGK
# T2: GATA3 neoORF (frameshift; CSNH) peptide on HLA-B*08:01 (human)
# T2 peptide: ESKIMFATL
# T3: TMPRSS2:ERG gene fusion peptide on HLA-A*02:01 (human)
# T3 peptide: ALNSEALSV
# T4: GATA3 neoORF (frameshift; CSNH) peptide on HLA-A*02:01 (human)
# T4 peptide: MLTGPPARV
# T5: BTK C481S peptide on HLA-A*02:01 (human)
# T5 peptide: SLLNYLREM
# B1: RAS TCR-28 (TCR, V domains shown)
# Valpha: DQQVKQNSPSLSVQEGRISILNCDYTNSMFDYFLWYKKYPAEGPTFLISISSIKDKNEDGRFTVFLNKSAKHLSLHIVPSQPGDSAVYFCAASAVGQEYGNKLVFGAGTILRVKS
# Vbeta: DTGVSQNPRHKITKRGQNVTFRCDPISEHNRLYWYRQTLGQGPEFLTYFQNEAQLEKSRLLSDRFSAERPKGSFSTLEIQRTEQGDSAMYLCASSEYTMGTQYFGPGTRLLVL
# B2: GATA3 TCR-3 (TCR, V domains shown)
# Valpha: AQSVSQHNHHVILSEAASLELGCNYSYGGTVNLFWYVQYPGQHLQLLLKYFSGDPLVKGIKGFEAEFIKSKFSFNLRKPSVQWSDTAEYFCAVISVTGNNRKLIWGLGTSLAVNP
# Vbeta: DGGITQSPKYLFRKEGQNVTLSCEQNLNHDAMYWYRQDPGQGLRLIYYSQIVNDFQKGDIAEGYSVSREKKESFPLTVTSAQKNPTAFYLCASSRTAMNTEAFFGQGTRLTVV
# B3: TMPRSS2::ERG TCR-1 (TCR, V domains shown)
# Valpha: AQKVTQAQTEISVVEKEDVTLDCVYETRDTTYYLFWYKQPPSGELVFLIRRNSFDEQNEISGRYSWNFQKSTSSFNFTITASQVVDSAVYFCALSEARVFNGANSKLTFGKGITLSVRP
# Vbeta: EAGVTQFPSHSVIEKGQTVTLRCDPISGHDNLYWYRRVMGKEIKFLLHFVKESKQDESGMPNNRFLAERTGGTYSTLKVQPAELEDSGVYFCASSQADSPLHFGNGTRLTVT
# B4: RAS TCR-26 (TCR, V domains shown)
# Valpha: DQQVKQNSPSLSVQEGRISILNCDYTNSMFDYFLWYKKYPAEGPTFLISISSIKDKNEDGRFTVFLNKSAKHLSLHIVPSQPGDSAVYFCAANAGGTSYGKLTFGQGTILTVHP
# Vbeta: EPEVTQTPSHQVTQMGQEVILRCVPISNHLYFYWYRQILGQKVEFLVSFYNNEISEKSEIFDDQFSVERPDGSNFTLKIRSTKLEDSAMYFCASSEWGSTGELFFGEGSRLTVL
# B5: RAS TCR-27 (TCR, V domains shown)
# Valpha: ELKVEQNPLFLSMQEGKNYTIYCNYSTTSDRLYWYRQDPGKSLESLFVLLSNGAVKQEGRLMASLDTKARLSTLHITAAVHDLSATYFCAVDIIGGKSTFGDGTTLTVKP
# Vbeta: B4 Vbeta
# B6: GATA3 TCR-1 (TCR, V domains shown)
# Valpha: SQKIEQNSEALNIQEGKTATLTCNYTNYSPAYLQWYRQDPGRGPVFLLLIRENEKEKRKERLKVTFDTTLKQSLFHITASQPADSATYLCALDIYGNNRLAFGKGNQVVVIP
# Vbeta: DVKVTQSSRYLVKRTGEKVFLECVQDMDHENMFWYRQDPGLGLRLIYFSYDVKMKEKGDIPEGYSVSREKKERFSLILESASTNQTSMYLCASSLDFVLAGSYSYNEQFFGPGTRLTVL
# B7: BTK TCR-2 (TCR, V domains shown)
# Valpha: QKEVEQNSGPLSVPEGAIASLNCTYSDRGSQSFFWYRQYSGKSPELIMFIYSNGDKEDGRFTAQLNKASQYVSLLIRDSQPSDSATYLCAVNEGDSSYKLIFGSGTRLLVRP
# Vbeta: DSGVTQTPKHLITATGQRVTLRCSPRSGDLSVYWYQQSLDQGLQFLIQYYNGEERAKGNILERFSAQQFPDLHSELNLSSLELGDSALYFCASSPGANEKLFFGSGTQLSVL
# B8: BTK TCR-1 (TCR, V domains shown)
# Valpha: QKEVEQNSGPLSVPEGAIASLNCTYSDRGSQSFFWYRQYSGKSPELIMFIYSNGDKEDGRFTAQLNKASQYVSLLIRDSQPSDSATYLCAVNDYGGSQGNLIFGKGTKLSVKP
# Vbeta: DTGVSQNPRHKITKRGQNVTFRCDPISEHNRLYWYRQTLGQGPEFLTYFQNEAQLEKSRLLSDRFSAERPKGSFSTLEIQRTEQGDSAMYLCASSFGPDEKLFFGSGTQLSVL
# Key:
# [1] = target: T1, KRAS G12V peptide on HLA-A*11:01; assay: multimer staining
# Description: (§1) Neoantigen specific T cells were detected by combining HLA-multimer staining with 2 different fluorochrome conjugated recombinant HLA (HLA-A02.01, HLA-A03.01, or HLA-A11.01) multimer with neoantigen peptides. Anti-CD8, anti-CD4, anti-CD19, anti-CD16, anti-CD14, anti-CD56 and antibodies and Live/Dead IR dye (Invitrogen) were used for cell surface staining. CD8⁺ T cells were identified as CD8⁺CD4⁻CD19⁻CD16⁻CD14⁻CD56⁻IR⁻ (FIGS. 1, 2, 4A, 5, 6A, 8F, 8G, 9, 10A, 10B, 11, 13, 15, 16A and 16B). For sorting, up to 5×10⁶ cells were incubated with 1-20 μg multimer in 100 μL PBS+0.5% human serum. Antibodies and Live/Dead IR dye were used to stain the cells for an additional 30 min. After staining, cells were washed twice and diluted in PBS+0.5% human serum. Live/Dead IR dye-negative cells were gated and CD8⁺/multimer⁺ T cells were sorted on a FACSAria cell sorter (BD Biosciences).
# [2] = target: T2, GATA3 neoORF (frameshift; CSNH) peptide …; assay: cytokine release
# [3] = target: T3, TMPRSS2:ERG gene fusion peptide on …; assay: multimer staining
# Description: as §1
# [4] = target: T4, GATA3 neoORF (frameshift; CSNH) peptide …; assay: multimer staining
# Description: as §1
# [5] = target: T5, BTK C481S peptide on HLA-A*02:01; assay: multimer staining
# Description: as §1
binder,measurement,setting,value
B1,binding result,[1],recognises
B2,binding result,[2],recognises
B3,binding result,[3],recognises
B4,binding result,[1],recognises
B5,binding result,[1],recognises
B6,binding result,[4],recognises
B7,binding result,[5],recognises
B8,binding result,[5],recognises
